Measurements published in article PMC6753376 (Molecular Systems Biology, 2019).
Blank lines part the entries; values can stand above or below the molecule they belong to.

Columns and labels:
C3b (human) = C3b (human) (UniProt P01024); assay: cross-linking; quantitative cross-linking mass spectrometry (QCLMS) of C3b alone; C3b monomer and dimer labelled as in Chen et al, 2016c, in-gel digested with trypsin, then sequential digestion
Mcm6 = target: T1, Mcm6 (S. cerevisiae, UniProt P53091 1-1017); assay: cross-linking; BS3 cross-linking of 200 ug OCCM complex on pUC19-ARS1 beads, 1:8,100 protein to crosslinker molar ratio, 2 h on ice; sequential digestion, SEC, LC-MS/MS, xiSEARCH, 5% FDR; conditions: both partners purified
T1 construct: Mcm6, S. cerevisiae, subunit of MCM2-7 in the OCCM complex; source: in the OCCM complex assembled on pUC19-ARS1 beads as described elsewhere (Evrin et al, 2009)
T1 sequence (P53091 whole entry): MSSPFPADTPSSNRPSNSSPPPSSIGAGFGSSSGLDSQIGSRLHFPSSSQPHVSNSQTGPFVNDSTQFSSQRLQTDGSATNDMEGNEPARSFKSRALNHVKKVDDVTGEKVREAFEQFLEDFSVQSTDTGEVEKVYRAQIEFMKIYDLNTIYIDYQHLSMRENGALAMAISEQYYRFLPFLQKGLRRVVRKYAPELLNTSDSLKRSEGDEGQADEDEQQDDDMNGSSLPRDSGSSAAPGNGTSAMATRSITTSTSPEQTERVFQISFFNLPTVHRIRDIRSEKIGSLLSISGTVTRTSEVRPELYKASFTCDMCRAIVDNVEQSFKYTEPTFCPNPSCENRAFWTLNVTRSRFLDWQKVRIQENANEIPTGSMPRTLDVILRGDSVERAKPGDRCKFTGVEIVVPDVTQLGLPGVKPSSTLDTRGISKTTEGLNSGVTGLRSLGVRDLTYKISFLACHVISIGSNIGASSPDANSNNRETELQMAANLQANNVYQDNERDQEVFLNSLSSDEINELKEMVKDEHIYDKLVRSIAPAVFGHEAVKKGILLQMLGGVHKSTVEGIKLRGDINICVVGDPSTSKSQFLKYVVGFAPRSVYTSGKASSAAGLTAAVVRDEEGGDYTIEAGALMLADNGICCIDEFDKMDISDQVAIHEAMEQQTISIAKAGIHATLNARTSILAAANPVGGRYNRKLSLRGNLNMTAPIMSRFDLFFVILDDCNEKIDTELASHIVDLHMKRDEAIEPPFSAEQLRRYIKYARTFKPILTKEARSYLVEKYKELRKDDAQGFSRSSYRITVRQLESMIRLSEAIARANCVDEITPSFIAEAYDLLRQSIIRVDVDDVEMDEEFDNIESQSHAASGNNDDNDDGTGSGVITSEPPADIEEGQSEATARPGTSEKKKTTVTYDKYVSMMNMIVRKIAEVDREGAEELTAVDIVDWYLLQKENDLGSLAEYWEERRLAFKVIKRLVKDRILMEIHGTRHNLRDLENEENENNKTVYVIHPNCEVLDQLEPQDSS

Mcm2 = target: T2, Mcm2 (S. cerevisiae, UniProt P29469 1-868); assay: as above; conditions: both partners purified
T2 construct: Mcm2, S. cerevisiae, subunit of MCM2-7 in the OCCM complex; the search database held all 14 OCCM subunits; source: in the OCCM complex assembled on pUC19-ARS1 beads as described elsewhere (Evrin et al, 2009)
T2 sequence (looked up): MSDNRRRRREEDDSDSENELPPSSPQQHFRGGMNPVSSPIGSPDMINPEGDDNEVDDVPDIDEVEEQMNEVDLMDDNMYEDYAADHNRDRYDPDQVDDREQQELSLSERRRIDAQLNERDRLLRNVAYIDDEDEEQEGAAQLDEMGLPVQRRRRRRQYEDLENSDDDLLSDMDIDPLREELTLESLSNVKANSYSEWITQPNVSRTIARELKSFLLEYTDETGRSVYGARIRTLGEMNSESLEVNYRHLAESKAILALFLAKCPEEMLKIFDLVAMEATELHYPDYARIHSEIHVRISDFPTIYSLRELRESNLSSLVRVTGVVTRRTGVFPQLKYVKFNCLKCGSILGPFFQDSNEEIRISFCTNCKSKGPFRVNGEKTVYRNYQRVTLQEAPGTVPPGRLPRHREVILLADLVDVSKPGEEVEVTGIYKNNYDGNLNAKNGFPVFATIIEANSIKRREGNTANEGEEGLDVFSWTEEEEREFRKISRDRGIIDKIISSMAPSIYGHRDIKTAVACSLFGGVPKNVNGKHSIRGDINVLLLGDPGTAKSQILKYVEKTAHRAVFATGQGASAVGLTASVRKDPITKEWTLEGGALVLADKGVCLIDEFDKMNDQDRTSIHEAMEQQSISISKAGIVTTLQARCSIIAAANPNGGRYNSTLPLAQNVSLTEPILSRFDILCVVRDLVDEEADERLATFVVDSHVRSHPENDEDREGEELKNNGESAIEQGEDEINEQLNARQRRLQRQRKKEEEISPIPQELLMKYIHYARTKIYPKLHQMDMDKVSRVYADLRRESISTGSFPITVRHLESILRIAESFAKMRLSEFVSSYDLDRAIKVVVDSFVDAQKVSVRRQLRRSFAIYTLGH

binding result (Mcm2): binds
B2: Orc5 (natural protein, S. cerevisiae, UniProt P50874 1-479, looked up)
chain: MNVTTPEVAFREYQTNCLASYISADPDITPSNLILQGYSGTGKTYTLKKYFNANPNLHAVWLEPVELVSWKPLLQAIARTVQYKLKTLYPNIPTTDYDPLQVEEPFLLVKTLHNIFVQYESLQEKTCLFLILDGFDSLQDLDAALFNKYIKLNELLPKDSKINIKFIYTMLETSFLQRYSTHCIPTVMFPRYNVDEVSTILVMSRCGELMEDSCLRKRIIEEQITDCTDDQFQNVAANFIHLIVQAFHSYTGNDIFALNDLIDFKWPKYVSRITKENIFEPLALYKSAIKLFLSTDDNLSENGQGESAITTNRDDLENSQTYDLSIISKYLLIASYICSYLEPRYDASIFSRKTRIIQGRAAYGRRKKKEVNPRYLQPSLFAIERLLAIFQAIFPIQGKAESGSLSALREESLMKANIEVFQNLSELHTLKLIATTMNKNIDYLSPKVRWKVNVPWEIIKEISESVHFNISDYFSDIHE
notes: Orc5, S. cerevisiae, subunit of ORC in the OCCM complex; source: in the OCCM complex assembled on pUC19-ARS1 beads as described elsewhere (Evrin et al, 2009)

binding result (Mcm2): binds
B3: Orc2 (natural protein, S. cerevisiae, UniProt P32833 1-620, looked up)
chain: MLNGEDFVEHNDILSSPAKSRNVTPKRVDPHGERQLRRIHSSKKNLLERISLVGNERKNTSPDPALKPKTPSKAPRKRGRPRKIQEELTDRIKKDEKDTISSKKKRKLDKDTSGNVNEESKTSNNKQVMEKTGIKEKREREKIQVATTTYEDNVTPQTDDNFVSNSPEPPEPATPSKKSLTTNHDFTSPLKQIIMNNLKEYKDSTSPGKLTLSRNFTPTPVPKNKKLYQTSETKSASSFLDTFEGYFDQRKIVRTNAKSRHTMSMAPDVTREEFSLVSNFFNENFQKRPRQKLFEIQKKMFPQYWFELTQGFSLLFYGVGSKRNFLEEFAIDYLSPKIAYSQLAYENELQQNKPVNSIPCLILNGYNPSCNYRDVFKEITDLLVPAELTRSETKYWGNHVILQIQKMIDFYKNQPLDIKLILVVHNLDGPSIRKNTFQTMLSFLSVIRQIAIVASTDHIYAPLLWDNMKAQNYNFVFHDISNFEPSTVESTFQDVMKMGKSDTSSGAEGAKYVLQSLTVNSKKMYKLLIETQMQNMGNLSANTGPKRGTQRTGVELKLFNHLCAADFIASNEIALRSMLREFIEHKMANITKNNSGMEIIWVPYTYAELEKLLKTVLNTL
notes: Orc2, S. cerevisiae, subunit of ORC in the OCCM complex; source: in the OCCM complex assembled on pUC19-ARS1 beads as described elsewhere (Evrin et al, 2009)

Further lines, the molecule ahead of its results:

Molecule: C3b (from UniProt P01024 749-1663; P01024 749-1663) (natural protein)
stoichiometry N (C3b (human)): 2

B1: Cdt1 (natural protein, S. cerevisiae, UniProt P47112 1-604, looked up)
chain: MSGTANSRRKEVLRVPVIDLNRVSDEEQLLPVVRAILLQHDTFLLKNYANKAVLDALLAGLTTKDLPDTSQGFDANFTGTLPLEDDVWLEQYIFDTDPQLRFDRKCRNESLCSIYSRLFKLGLFFAQLCVKSVVSSAELQDCISTSHYATKLTRYFNDNGSTHDGADAGATVLPTGDDFQYLFERDYVTFLPTGVLTIFPCAKAIRYKPSTMATTDNSWVSIDEPDCLLFHTGTLLARWSQGMHTTSPLQIDPRANIVSLTIWPPLTTPISSKGEGTIANHLLEQQIKAFPKVAQQYYPRELSILRLQDAMKFVKELFTVCETVLSLNALSRSTGVPPELHVLLPQISSMMKRKIVQDDILKLLTIWSDAYVVELNSRGELTMNLPKRDNLTTLTNKSRTLAFVERAESWYQQVIASKDEIMTDVPAFKINKRRSSSNSKTVLSSKVQTKSSNANALNNSRYLANSKENFMYKEKMPDSQANLMDRLRERERRSAALLSQRQKRYQQFLAMKMTQVFDILFSLTRGQPYTETYLSSLIVDSLQDSNNPIGTKEASEILAGLQGILPMDISVHQVDGGLKVYRWNSLDKNRFSKLLQIHKSKQQD
notes: Cdt1, S. cerevisiae, subunit of the OCCM complex; source: in the OCCM complex assembled on pUC19-ARS1 beads as described elsewhere (Evrin et al, 2009)
binding result (Mcm6): binds
